B1: Transitional endoplasmic reticulum ATPase, residues 26 to 106; numbered along this chain, P55072 (parent)
chain: LIVDEAINEDNSVVSLSQPKMDELQLFRGDTVLLKGKKRREAVCIVLSDDTCSDEKIRMNRVVRNNLRVRLGDVISIQPCP

± gives the uncertainty stated by the source.

The values below come from the Human Domainome abundance scans (Beltran et al. 2025).

The variants in the series derive from B1. Briefly: abundance fitness (aPCA) (normalised: wild type 0, dead -1); higher = more abundant; growth selection in yeast, the domain comes from the species named. To be noted: Homo sapiens.
As for C52K, the abundance fitness was -0.334 ± 0.14.
The result for C52S reads -0.261 ± 0.066.
The result for C52F reads -0.495 ± 0.27; that for C52P, -0.624 ± 0.13.
As for C52G, the abundance fitness is -0.197 ± 0.047.
Consider C52V, for which the abundance fitness is -0.062 ± 0.054.
Turning to C52T, the abundance fitness is -0.027 ± 0.071.
Take C52Q: the abundance fitness was -0.026 ± 0.095.
Consider C52R, for which the abundance fitness was -0.192 ± 0.059.
For C52W the value was -0.728 ± 0.11; for C52H, -0.452 ± 0.26.
As for C52M, the abundance fitness was -0.016 ± 0.092.
For C52L the value was 0.018 ± 0.059; for K56Q, 0.067 ± 0.1.
The result for K56C reads 0.027 ± 0.085; that for K56D, -0.271 ± 0.15; that for K56Y, -0.022 ± 0.1.
Turning to K56M, the abundance fitness was -0.112 ± 0.082.
As to K56A, the abundance fitness came to 0.018 ± 0.07.
For K56H the value was -0.183 ± 0.26; for K56G, 0.008 ± 0.04.
In the case of K56F, the abundance fitness is -0.127 ± 0.1.
K56I: the abundance fitness was 0.013 ± 0.15.
The result for K56R reads -0.012 ± 0.068.
As for K56S, the abundance fitness amounted to 0.034 ± 0.061.
Take K56T: the abundance fitness was 0.091 ± 0.085.
With K56W, the abundance fitness is -0.35 ± 0.055.
On to K56L, for which the abundance fitness was -0.047 ± 0.055.
For K56E, the abundance fitness is -0.088 ± 0.073.
Take K56V: the abundance fitness was -0.021 ± 0.063.
The result for K56N reads 0.111 ± 0.23; that for K56P, -0.971 ± 0.2; that for D49W, -0.923 ± 0.14.
Consider D49K, for which the abundance fitness was -0.529 ± 0.41.
Turning to D49S, the abundance fitness stood at 0.064 ± 0.057.
Regarding D49T, the abundance fitness was -0.01 ± 0.097.
D49A: the abundance fitness was -0.139 ± 0.07.
As to D49Q, the abundance fitness is -0.307 ± 0.11.
With D49Y, the abundance fitness was -0.745 ± 0.23.
Turning to D49F, the abundance fitness was -0.936 ± 0.29.
As for D49L, the abundance fitness was -0.904 ± 0.15.
On to D49P, for which the abundance fitness was -0.743 ± 0.21.
D49E: the abundance fitness was -0.094 ± 0.13.
As for D49N, the abundance fitness was -0.254 ± 0.15.
For D49V the value was -0.455 ± 0.068; for D49M, -0.78 ± 0.2.
In the case of D49H, the abundance fitness was -0.251 ± 0.19.
As to D49G, the abundance fitness was -0.204 ± 0.054.
D49C: the abundance fitness is -0.468 ± 0.4.
As to D49R, the abundance fitness was -0.627 ± 0.064.
Take S53R: the abundance fitness is -0.035 ± 0.042.
Take S53P: the abundance fitness is -0.142 ± 0.1.
S53V: the abundance fitness is -0.022 ± 0.053.
S53I: the abundance fitness was -0.204 ± 0.13.
As for S53T, the abundance fitness was -0.019 ± 0.072.
As to S53C, the abundance fitness was -0.042 ± 0.081.
Take S53D: the abundance fitness came to 0.021 ± 0.14.
S53F: the abundance fitness was -0.032 ± 0.069.
For the variant S53H, the abundance fitness is -0.102 ± 0.12.
Consider S53W, for which the abundance fitness is -0.22 ± 0.071.
For S53K the value was -0.016 ± 0.11; for S53A, -0.019 ± 0.048; for S53G, -0.019 ± 0.048.
The result for S53E reads 0.003 ± 0.091.
With S53Q, the abundance fitness was 0.033 ± 0.11.
Turning to S53M, the abundance fitness is -0.09 ± 0.073.
On to S53N, for which the abundance fitness was 0.044 ± 0.15.
S53L: the abundance fitness was -0.026 ± 0.065.
On to I45D, for which the abundance fitness was -0.183 ± 0.084.
For I45N, the abundance fitness was 0.036 ± 0.13.
As to I45M, the abundance fitness is -0.137 ± 0.064.
I45G: the abundance fitness is -0.06 ± 0.036.
As to I45S, the abundance fitness was -0.028 ± 0.059.
Take I45Y: the abundance fitness is -0.029 ± 0.11.
In the case of I45H, the abundance fitness was -0.088 ± 0.084.
Turning to I45A, the abundance fitness was -0.006 ± 0.057.
I45P: the abundance fitness is -0.157 ± 0.12.
The result for I45C reads 0.008 ± 0.063.
Regarding I45V, the abundance fitness turned out to be 0.028 ± 0.032.
For the variant I45K, the abundance fitness was -0.002 ± 0.13.
The result for I45R reads 0.054 ± 0.055.
Turning to I45E, the abundance fitness is 0.035 ± 0.1.
For I45W the value was -0.176 ± 0.086.
For I45L the value was -0.016 ± 0.059.
Turning to I45F, the abundance fitness is -0.018 ± 0.076.
Consider S48Y, for which the abundance fitness was -0.168 ± 0.1.
Take S48A: the abundance fitness was determined as 0.065 ± 0.065.
Turning to S48G, the abundance fitness came to 0.001 ± 0.049.
Turning to S48C, the abundance fitness came to 0.07 ± 0.068.
For S48N the value was 0.049 ± 0.14; for S48T, -0.005 ± 0.074; for S48K, -0.004 ± 0.11.
As for S48I, the abundance fitness came out at 0.031 ± 0.15.
With S48Q, the abundance fitness was -0.106 ± 0.1.
Take S48D: the abundance fitness was -0.137 ± 0.1.
Take S48R: the abundance fitness was -0.015 ± 0.051.
The result for S48E reads 0.04 ± 0.079.
With S48F, the abundance fitness is -0.342 ± 0.17.
As to S48M, the abundance fitness is -0.05 ± 0.094.
Turning to S48H, the abundance fitness is -0.23 ± 0.12.
S48W: the abundance fitness is -0.357 ± 0.18.
On to S48V, for which the abundance fitness is 0.004 ± 0.055.
As to E41G, the abundance fitness is -0.269 ± 0.061.
For E41V, the abundance fitness is -0.213 ± 0.056.
In the case of E41Y, the abundance fitness was -0.14 ± 0.15.
As for E41C, the abundance fitness was -0.399 ± 0.1.
Take E41H: the abundance fitness is -0.167 ± 0.14.
The result for E41T reads -0.123 ± 0.098; that for E41L, -0.296 ± 0.062; that for E41Q, -0.098 ± 0.43.
For E41K the value was 0.045 ± 0.095; for E41P, -0.131 ± 0.1.
With E41N, the abundance fitness is -0.383 ± 0.2.
On to E41I, for which the abundance fitness is -0.312 ± 0.14.
For the variant E41S, the abundance fitness is -0.09 ± 0.057.
For the variant E41D, the abundance fitness was -0.125 ± 0.082.
Turning to T51Q, the abundance fitness was -0.183 ± 0.12.
Consider T51Y, for which the abundance fitness is -0.277 ± 0.12.
Turning to T51H, the abundance fitness is -0.515 ± 0.41.
The result for T51D reads 0.026 ± 0.094; that for T51N, 0.126 ± 0.14; that for T51K, -0.065 ± 0.088.
The result for T51G reads -0.024 ± 0.045; that for T51R, -0.086 ± 0.062.
With T51L, the abundance fitness was -0.117 ± 0.063.
As for T51S, the abundance fitness was -0.052 ± 0.054.
For T51E, the abundance fitness is 0.05 ± 0.07.
T51P: the abundance fitness is -0.306 ± 0.16.
The result for T51C reads -0.064 ± 0.1; that for T51I, -0.19 ± 0.11.
For T51W the value was -0.275 ± 0.068; for T51M, -0.131 ± 0.076.
For T51V the value was -0.145 ± 0.052; for L47D, -0.056 ± 0.076; for L47A, 0.082 ± 0.061.
As for L47F, the abundance fitness is 0.052 ± 0.12.
For L47T the value was -0.116 ± 0.099.
As for L47G, the abundance fitness was 0.024 ± 0.043.
On to L47C, for which the abundance fitness was -0.05 ± 0.087.
With L47K, the abundance fitness was -0.036 ± 0.076.
On to L47P, for which the abundance fitness was -0.756 ± 0.17.
Turning to L47W, the abundance fitness was -0.07 ± 0.073.
As for L47S, the abundance fitness is -0.068 ± 0.061.
Take L47E: the abundance fitness came out at 0.055 ± 0.09.
L47M: the abundance fitness was found to be 0.082 ± 0.095.
Consider L47H, for which the abundance fitness was found to be 0.126 ± 0.12.
Regarding L47V, the abundance fitness was -0.018 ± 0.052.
For the variant L47R, the abundance fitness is -0.01 ± 0.054.
L47Q: the abundance fitness was -0.015 ± 0.088.
Consider L47N, for which the abundance fitness turned out to be 0.028 ± 0.16.
As to L47Y, the abundance fitness was -0.087 ± 0.16.
As for L47I, the abundance fitness is -0.042 ± 0.083.
For the variant I57R, the abundance fitness was -0.931 ± 0.14.
Take I57Q: the abundance fitness is -0.816 ± 0.18.
Consider I57S, for which the abundance fitness was -0.861 ± 0.15.
Consider I57L, for which the abundance fitness is -0.224 ± 0.066.
As to I57E, the abundance fitness is -0.804 ± 0.15.
Consider I57A, for which the abundance fitness was -0.356 ± 0.064.
For I57K, the abundance fitness is -0.931 ± 0.35.
Take I57V: the abundance fitness is -0.019 ± 0.058.
Take I57P: the abundance fitness is -0.933 ± 0.17.
Turning to I57W, the abundance fitness was -0.848 ± 0.18.
I57C: the abundance fitness was -0.492 ± 0.16.
As to I57T, the abundance fitness is -0.622 ± 0.11.
Turning to I57M, the abundance fitness is -0.198 ± 0.084.
In the case of I57N, the abundance fitness was -0.716 ± 0.3.
With I57G, the abundance fitness is -0.951 ± 0.15.
